Results published in article doi:10.1101/2025.09.18.677151, “Structure and substrate recognition by the Twin-arginine translocation (Tat) pathway core complex” (bioRxiv, 2025).

How the values were obtained:
[1] = molecular target: T1, E. coli TatBC complex (E. coli, UniProt P69425 1-171; P69423 1-258); assay: cryo-EM structure; purified MdoD (SUMO removed) mixed with purified E. coli Tat complex in 0.02% GDN overnight at 4°C, SEC; core region 2.4 Å (C3), focused refinement on MdoD 2.1 Å (C2); settings: both partners purified
T1 construct: TatB, E. coli; amplified from E. coli genomic DNA (DSM 1116); TatC, E. coli; also called TatB3C3; (TatBC)3; source: E. coli MC4100 ΔtatABCD ΔtatE, pQE60 based vector, overexpressed; purified in GDN (His-tag resin, SEC); for the pull-down captured from GDN-solubilised membranes on His-tag resin and washed; copies: 3 + 3
T1 sequence 1: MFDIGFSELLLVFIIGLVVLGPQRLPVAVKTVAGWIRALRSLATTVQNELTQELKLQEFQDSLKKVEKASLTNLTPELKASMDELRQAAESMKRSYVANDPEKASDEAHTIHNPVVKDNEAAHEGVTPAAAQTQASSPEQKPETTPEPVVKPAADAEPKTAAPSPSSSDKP
T1 sequence 2: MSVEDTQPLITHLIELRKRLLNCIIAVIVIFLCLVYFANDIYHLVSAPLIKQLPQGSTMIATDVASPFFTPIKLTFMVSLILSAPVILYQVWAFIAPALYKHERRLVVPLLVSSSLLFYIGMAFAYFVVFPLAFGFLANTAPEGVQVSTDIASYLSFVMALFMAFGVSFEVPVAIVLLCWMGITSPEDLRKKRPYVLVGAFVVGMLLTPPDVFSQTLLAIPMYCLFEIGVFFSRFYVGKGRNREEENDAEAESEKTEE

[2] = molecular target: the molecule itself; assay: as above
[3] = molecular target: the molecule itself; assay: crystal structure; selenomethionine-labelled M. xanthus TatC periplasmic domain; sitting drop, 21 °C; data to 2.0 Å
[4] = molecular target: the molecule itself; assay: cryo-EM structure; M. xanthus TatBC complex purified in GDN; single particle, C3 symmetry
[5] = molecular target: the molecule itself; assay: cryo-EM structure; N. salsuginis TatBC complex purified in GDN; single particle, C3 symmetry
[6] = molecular target: T2, E. coli TatC with a C-terminal strep tag, expressed from the tatABC plasmid (E. coli, UniProt P69423 1-258); assay: quantification of Coomassie stained SDS-PAGE bands of the purified complexes; purified E. coli TatABC and TatBC loaded at 4 dilutions; bands quantified with ImageJ; three independent samples; settings: both partners purified
T2 construct: TatC, E. coli; also called TatC_(strep); source: E. coli MC4100 ΔtatABCD ΔtatE, tatABC operon on a low copy number plasmid; in GDN-solubilised membranes, captured on Streptactin XT; not shown: strep tag, C-terminal, kept
T2 sequence: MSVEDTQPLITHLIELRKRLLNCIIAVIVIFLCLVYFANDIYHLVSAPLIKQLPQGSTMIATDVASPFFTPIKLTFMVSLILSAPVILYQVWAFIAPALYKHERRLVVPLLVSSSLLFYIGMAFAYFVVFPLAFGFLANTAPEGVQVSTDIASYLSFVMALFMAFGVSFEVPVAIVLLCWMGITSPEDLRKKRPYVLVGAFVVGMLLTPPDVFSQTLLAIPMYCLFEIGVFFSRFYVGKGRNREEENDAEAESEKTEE

[7] = molecular target: the molecule itself; assay: cryo-EM structure; E. coli TatBC complex purified in GDN; single particle, C3 symmetry, 3.1 Å

B1: E. coli MdoD, full length with its Tat signal peptide (natural protein, UniProt P40120 1-551, looked up)
chain: MDRRRFIKGSMAMAAVCGTSGIASLFSQAAFAADSDIADGQTQRFDFSILQSMAHDLAQTAWRGAPRPLPDTLATMTPQAYNSIQYDAEKSLWHNVENRQLDAQFFHMGMGFRRRVRMFSVDPATHLAREIHFRPELFKYNDAGVDTKQLEGQSDLGFAGFRVFKAPELARRDVVSFLGASYFRAVDDTYQYGLSARGLAIDTYTDSKEEFPDFTAFWFDTVKPGATTFTVYALLDSASITGAYKFTIHCEKSQVIMDVENHLYARKDIKQLGIAPMTSMFSCGTNERRMCDTIHPQIHDSDRLSMWRGNGEWICRPLNNPQKLQFNAYTDNNPKGFGLLQLDRDFSHYQDIMGWYNKRPSLWVEPRNKWGKGTIGLMEIPTTGETLDNIVCFWQPEKAVKAGDEFAFQYRLYWSAQPPVHCPLARVMATRTGMGGFSEGWAPGEHYPEKWARRFAVDFVGGDLKAAAPKGIEPVITLSSGEAKQIEILYIEPIDGYRIQFDWYPTSDSTDPVDMRMYLRCQGDAISETWLYQYFPPAPDKRQYVDDRVMS
notes: MdoD (OpgD), E. coli, precursor with the 32 residue Tat signal peptide; amplified from E. coli genomic DNA (DSM 1116); also called OpgD; source: E. coli BL21 (DE3) ΔtatABCD ΔtatE, pET28a modified, purified (His-tag resin), His6-SUMO removed with Ulp1; not shown: His6-SUMO, N-terminal, cleaved
stoichiometry N [1]: 3
stoichiometry N [2]: 2

B2: M. xanthus TatC periplasmic domain (residues 127-303) (domain or fragment, Myxococcus xanthus, UniProt Q2PHA2 127-303, looked up)
chain: SMFTFLLNEEETLALEQRLDTARLRADDALRFLRLGEAEEAGRIAKETSTQLRAEGQGQAPAPEVAPAASVEMTGRLDGLGRLLDAASVGYGAQSRGVLRQAVEKRVEAVTAYEKKDFAAAAAAMDGSASLLAGIAPTRTEELAGLWRLEKELATAHAAHEAARWTRPMLSMHEQLS
modifications: selenomethionine-labelled
notes: TatC, Myxococcus xanthus, periplasmic domain, residues 127-303; also called M. xanthus insert; M. xanthus periplasmic domain; source: E. coli B834 (DE3), pET15b, purified (Ni-NTA, TEV, SEC)
stoichiometry N [3]: 3

B3: M. xanthus TatC (GFP-His removed) (natural protein, Myxococcus xanthus)
chain: MSLADHLTELRSRLMRCTIAVLILGTISLVFAKPIFGLLMQPVLDALPPENRSLIYTSGIEELNVLMKVGVYCGIFLTTPVILMQIWGFVSPGLYPEERRFAAPFVAFGSIAFLLGAAFCYFAVLPSMFTFLLNEEETLALEQRLDTARLRADDALRFLRLGEAEEAGRIAKETSTQLRAEGQGQAPAPEVAPAASVEMTGRLDGLGRLLDAASVGYGAQSRGVLRQAVEKRVEAVTAYEKKDFAAAAAAMDGSASLLAGIAPTRTEELAGLWRLEKELATAHAAHEAARWTRPMLSMHEQLSLVLLLILAFGIIFELPLVMALLGVVGVVKSSWLFRYQRHAFVVCLIAAAIITPTGDVVNLSLMAGPMLLCYELGVLLVWMVERRRARNSAETGITPAS
notes: TatC, Myxococcus xanthus, with a large periplasmic insert; gene codon-optimised and synthesised; source: E. coli strain L56, pWALDO based pTatC-GFP-His, co-overexpressed with TatB-strep; purified in GDN (Ni-NTA, TEV, Streptactin XT, SEC)
stoichiometry N [4]: 3

B4: N. salsuginis TatC (GFP-His removed) (natural protein, Nitratifractor salsuginis)
chain: MFESMKPHLAELRQRLAISVLAVFVGFIIAFTFHNAILGWITKPLNNALIQVGKIVEKREMGTWKISGNEHNATLAPSKSPALLSDHAQSAEKLHRTLAEASQATQNPKLQKLLSQAASAAEELARNSRILRKALVKEENLTRQAVNQNLREKSFNGMITTHQVGGAFFVALKVSFFAGILMAMPVILWQLWLFIAPGLYDNEKKMVLPFVVGGSVMFLIGVLFAYYVVTPFGFQFLITFGSFLYTPLINIEDYVGFFTKILIGFGIAFELPVVAYFLALLGLITDKTLKDYFKYAIVIIFLLAAFLTPPDVLTQLLMAAPLILLYGLSILIVHYVNPYKPEEKEDDEEEEEDEFEKAEREFEALEKGSESHES
notes: TatC, Nitratifractor salsuginis, with a large periplasmic insert; gene codon-optimised and synthesised; source: E. coli strain L56, pWALDO based pTatC-GFP-His, co-overexpressed with TatB-strep or TatA-strep; purified in GDN or digitonin (Ni-NTA, TEV, Streptactin XT, SEC)
stoichiometry N [5]: 3

B5: E. coli TatB expressed from the tatABC plasmid (natural protein)
chain: MFDIGFSELLLVFIIGLVVLGPQRLPVAVKTVAGWIRALRSLATTVQNELTQELKLQEFQDSLKKVEKASLTNLTPELKASMDELRQAAESMKRSYVANDPEKASDEAHTIHNPVVKDNEAAHEGVTPAAAQTQASSPEQKPETTPEPVVKPAADAEPKTAAPSPSSSDKP
notes: TatB, E. coli; source: E. coli MC4100 ΔtatABCD ΔtatE, tatABC operon on a low copy number plasmid; in GDN-solubilised membranes, co-purified
ratio of TatB to TatC in the TatABC complex relative to the TatBC complex [6]: 0.78

B6: E. coli TatB (subunit of the overexpressed TatBC complex) (natural protein)
chain: MFDIGFSELLLVFIIGLVVLGPQRLPVAVKTVAGWIRALRSLATTVQNELTQELKLQEFQDSLKKVEKASLTNLTPELKASMDELRQAAESMKRSYVANDPEKASDEAHTIHNPVVKDNEAAHEGVTPAAAQTQASSPEQKPETTPEPVVKPAADAEPKTAAPSPSSSDKP
notes: TatB, E. coli; amplified from E. coli genomic DNA (DSM 1116); residues 1-63 modelled in the cryo-EM map; source: E. coli MC4100 ΔtatABCD ΔtatE, pQE60 based vector, co-overexpressed with TatC; purified in GDN (His-tag resin, SEC)
binding result [7]: binds
